Data as given in US20210040187A1 (INSTITUT PASTEUR, published 2021).

Molecular target: T1, acetylcholine receptor alpha 7 sub-unit (AchR alpha7) (UniProt P36544 23-502)
T1 construct: whole, on cells
Experiment: flow cytometry on AchR alpha7-expressing HEK293 cells, 30 min at 4 C

T1 sequence (P36544 23-502): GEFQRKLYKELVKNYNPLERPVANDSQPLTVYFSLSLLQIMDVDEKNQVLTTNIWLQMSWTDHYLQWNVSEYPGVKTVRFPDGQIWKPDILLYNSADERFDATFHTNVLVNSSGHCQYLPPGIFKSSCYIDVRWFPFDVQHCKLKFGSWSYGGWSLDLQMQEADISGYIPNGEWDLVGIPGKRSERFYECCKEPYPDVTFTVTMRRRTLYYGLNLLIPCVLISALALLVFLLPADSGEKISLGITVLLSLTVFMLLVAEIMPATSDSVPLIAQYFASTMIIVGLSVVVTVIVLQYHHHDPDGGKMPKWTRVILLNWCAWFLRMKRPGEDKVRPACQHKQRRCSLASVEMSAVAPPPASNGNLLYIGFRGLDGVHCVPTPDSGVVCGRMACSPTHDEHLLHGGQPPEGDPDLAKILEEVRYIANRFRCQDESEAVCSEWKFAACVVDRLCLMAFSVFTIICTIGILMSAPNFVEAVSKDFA

B1: VHH2 (MA peptide, VHH A12, StrepTag, NV; lacking the RDP1 sequence) (VHH)
chain: MAEVQLQASGGGLAQPGGSLRLSVTVSGSIDVINNMAWYRQAPGNARELVATITSGFSTNYASSVKGRFTISRDNAKKAVYLQMNSLKPEDTADYYSKVHLIRLGAARAYDYWGQGTQVTVSGGGSAWSHPQFEKAAARRVNRSEPTQHNLRGTGREVSVTPQSGKIISSWEVHGQQTRL
binding result: no binding (tested: 20 pg)
